Reference: US20230057602A1, “METHODS OF TREATMENT WITH ANTIBODIES AGAINST BCMA AND CD3” (BRISTOL-MYERS SQUIBB COMPANY, priority 2019, published 2023)

Columns and labels:
[1] = Clinical study of CC-93269 in RRMM: pharmacokinetics (exposure); format: in vivo, human
Description: CC-93269 (42-TCBcv), a bispecific antibody that specifically binds to BCMA bivalently and CD3 monovalently, was administered intravenously over 2 hours on Days 1, 8, 15, and 22 for Cycles 1-3; Days 1 and 15 for Cycles 4-6; and on Day 1 for Cycle 7 and beyond, all in 28-day cycles. 14 patients received a fixed dose of CC-93269 at each of the intervals: 0.15 mg (Cohort 1, n=1), 0.5 mg (Cohort 2, n=1), 1.5 mg (Cohort 3, n=1), 3 mg (Cohort 4, n=4), 6 mg (Cohort 5, n=3) or 10 mg (Cohort 6, n=4). 5 patients received a starting dose of 6 mg on Cycle 1 Day 1, followed by a dose of 10 mg on Cycle 1 Day 8 and thereafter (Cohort 7, n=5).
This phenomenon was not observed at 3 mg doses.

[2] = system: SKMM2 BCMA-expressing myeloma cell line; assay: CC-93269-induced redirected lysis of SKMM2; format: cell-based, human; details: E:T 1:1, 72 hours, 3 donors
Description: Four BCMA-expressing tumour cell lines purchased from ATCC (Manassa, Va.) (Multiple Myeloma cell lines: BCMA high-H-929 (catalog number CRL-9068), BCMA mid-SKMM2 and -MM.1S (catalog number ACC-430) and BCMA low-KMS12-PE (catalog number ACC-606)) were co-cultured with T-cells from 3 independent healthy donors (Bloodworks Northwest, Seattle, Wash.), at a E:T ratio of 1:1, i.e. 1 T cell: 1 myeloma cell. […]; 0.033-2.6 nM) for 72 hours.
FIG. 7 illustrates CC-93269-induced redirected lysis of BCMA+ tumour cell lines following co-culture with donor T cells from one healthy donor; results from all 3 independent healthy donors are summarised in Table 19. In 96-well round bottom plates and a final volume of 100 μL, 1×10^4 CellTrace Violet-labeled T-cells were plated with 1×10^4 CellTrace CFSE-labeled target cells, in the presence of varying concentrations of CC-93269 in combination with varying concentrations of dexamethasone (7-point dose response). The cocultures were incubated at 37° C. with 5% CO2. […] One-hundred percent viability was determined by the absolute cell count of live tumour cells at no addition of CC-93269 or dexamethasone; an absolute cell count of 0 live cells was used to define 100% killing of tumour cells. […] The IC50 values were calculated using non-linear regression analysis, sigmoidal dose-response using GraphPad Prism (version 5.0) software.

[3] = Subcutaneous versus intravenous bioavailability (data not shown); format: in vivo
Description: In some embodiments of any aspect of the invention, the multispecific (e.g. bispecific) antibody is administered intravenously or subcutaneously.

[4] = system: Relapsed/Refractory Multiple Myeloma (RRMM) patients; assay: Clinical study of CC-93269 in RRMM: safety, cytokine release syndrome (CRS); format: in vivo, human
Description: CC-93269 (42-TCBcv), a bispecific antibody that specifically binds to BCMA bivalently and CD3 monovalently, was administered intravenously over 2 hours on Days 1, 8, 15, and 22 for Cycles 1-3; Days 1 and 15 for Cycles 4-6; and on Day 1 for Cycle 7 and beyond, all in 28-day cycles. […] 5 patients received a starting dose of 6 mg on Cycle 1 Day 1, followed by a dose of 10 mg on Cycle 1 Day 8 and thereafter (Cohort 7, n=5).
CRS prophylaxis was implemented with dexamethasone (up to 20 mg intravenous or equivalent) for the first dose and dose increases in patients receiving ≥6 mg. In Cohorts 1-4, dexamethasone was not used as a premedication.
Patients were monitored for clinical signs and symptoms associated with CRS (Lee, 2014) and CRS events were graded and treated according to the common CTCAE CRS grading scale (Lee, 2015).
CC-93269 was administered intravenously over 2 hours on Days 1, 8, 15, and 22 for Cycles 1-3; Days 1 and 15 for Cycles 4-6; and on Day 1 for Cycle 7 and beyond, all in 28-day cycles. Patients received a starting dose of 3 mg on Cycle 1 Day 1, followed by a dose of 6 mg on Cycle 1 Day 8 and thereafter.
Cohorts 8 (n=6) and 9 (n=5) differ in baseline multiple myeloma tumor burden based on percentage of bone marrow plasma cells and/or the presence of extramedullary disease (Cohort 8 including subjects with ≤50% bone marrow plasma cells [biopsy or aspirate] and ≤5 extramedullary lesions and Cohort 9 including subjects with >50% bone marrow plasma cells or >5 extramedullary lesions). Patients with lower (Cohort 8) and higher (Cohort 9) tumour burden were enrolled to evaluate possible differences in tolerability based on the rationale that the only patient of Cohorts 1-7 to experience Grade ≥3 CRS had extensive extramedullary disease at enrolment.
In Cohorts 8 and 9, all patients received dexamethasone (up to 20 mg intravenous or equivalent) as prophylaxis for CRS prior to the first dose, the second dose, any dose increase, and after dose interruption of more than 2 weeks occurring during Cycles 1 to 6. Patients were monitored, graded, and treated for CRS in the same way as for Cohorts 1-7 in Example 1.

## CC-93269: bispecific antibody that specifically binds to BCMA bivalently and CD3 monovalently; SEQ ID NO:48, 55, 56, 57 (2×)
[1]; 3 mg doses
  large increases in exposure after multiple doses: not observed
[1]; doses ≥6 mg
  exposure after multiple doses: large increases in exposure
[2]; 1 μM Dex co-treatment
  % live tumour cells, Mean: 3.5%
[2]; DMSO
  % live tumour cells, Mean: 2.68%
[3]
  bioavailability of subcutaneous administration: comparable bioavailability to intravenous administration
[4]; 11 patients, 3/6 mg dose regimen (Cohorts 8 and 9)
  patients who experienced CRS: 54.5%
[4]; 11 subjects receiving 3/6 mg
  subjects with Grade 2 or higher CRS events: 18.2%
[4]; 12 subjects, 6 mg, 6/10 mg, or 10 mg doses
  subjects with Grade 2 or higher CRS events: 50%
[4]; 12 subjects, 6 mg, 6/10 mg, or 10 mg doses (Cohorts 5 to 7)
  subjects who experienced CRS: 100%
[4]; Cohort 6, consecutive doses of 6 mg, all CRS events in Cycle 1
  CRS, maximum Grade: 2
[4]; Cohort 9 compared with Cohort 8
  CRS frequency or severity, higher versus lower tumor burden: no increase observed
[4]; Cohorts 8 and 9
  Grade 3 or higher CRS events: no Grade 3 or higher CRS events were reported
  severity of CRS in comparison with Cohorts 5 to 7: generally decreased
[4]; Cohorts 8 and 9, 8 events
  CRS events of Grade 1: 75%
  CRS events of Grade 2: 25%
[4]; Cohorts 8 and 9, tocilizumab and/or dexamethasone
  outcome of CRS events: resolved with standard treatments
[4]; One patient, 6 mg first dose and 10 mg on Cycle 1 Day 8 (Cohort 7)
  death on study: died on the study in the setting of CRS
[4]; all cohorts 1 to 9
  CRS events lasting more than 3 days: 4 of 36
  CRS events occurring with the first dose on C1D1: 73.3%
  CRS events occurring with the second dose on C1D8: 23.3%
  duration of a CRS event, range: 1 to 7 days
  maximum time to first onset of CRS: 3 days
  median duration of a CRS event: 2 days
  median time to first onset of CRS: 1 days
[4]; all cohorts 1 to 9, limited to Grade ≤2 events
  CRS events occurring with subsequent doses: 2.7%
[4]; consecutive doses of ≤3 mg, no CRS prophylactic
  tolerability: well-tolerated
[4]; fixed dose of ≤3 mg
  Cytokine release syndrome, maximum Grade: 1
[4]; one patient of Cohort 7, Cycle 1 Day 1, 6 mg
  CRS Grade after the first dose: 3
[4]; same patient of Cohort 7, Cycle 1 Day 8, 10 mg
  CRS Grade after the second dose: 5
